T1: human SLC34A2 (human, UniProt O95436 1-690)
T1 construct: whole, on cells; also called human solute carrier 34 A2; NaPi2b
T1 sequence (looked up): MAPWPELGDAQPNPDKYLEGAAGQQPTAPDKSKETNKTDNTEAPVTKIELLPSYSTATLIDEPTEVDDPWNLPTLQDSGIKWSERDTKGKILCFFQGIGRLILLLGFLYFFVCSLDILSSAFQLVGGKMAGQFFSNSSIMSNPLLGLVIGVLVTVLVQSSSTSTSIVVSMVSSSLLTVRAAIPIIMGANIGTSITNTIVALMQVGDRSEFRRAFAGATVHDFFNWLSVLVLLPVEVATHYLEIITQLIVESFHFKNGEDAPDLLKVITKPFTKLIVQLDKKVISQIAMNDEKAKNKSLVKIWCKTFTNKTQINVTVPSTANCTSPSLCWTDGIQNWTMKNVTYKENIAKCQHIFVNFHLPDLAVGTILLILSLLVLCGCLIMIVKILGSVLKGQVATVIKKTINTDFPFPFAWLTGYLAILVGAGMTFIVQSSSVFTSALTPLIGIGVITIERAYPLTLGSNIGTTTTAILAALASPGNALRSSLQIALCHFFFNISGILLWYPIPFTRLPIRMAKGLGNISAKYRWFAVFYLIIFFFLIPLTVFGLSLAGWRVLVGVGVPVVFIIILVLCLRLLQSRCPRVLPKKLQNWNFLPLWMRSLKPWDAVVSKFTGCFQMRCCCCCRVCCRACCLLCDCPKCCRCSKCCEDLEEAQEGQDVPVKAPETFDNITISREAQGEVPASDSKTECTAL

T2: Rhesus SLC34A2 (Rhesus, UniProt F7HDA3 1-690)
T2 construct: whole, on cells
T2 sequence: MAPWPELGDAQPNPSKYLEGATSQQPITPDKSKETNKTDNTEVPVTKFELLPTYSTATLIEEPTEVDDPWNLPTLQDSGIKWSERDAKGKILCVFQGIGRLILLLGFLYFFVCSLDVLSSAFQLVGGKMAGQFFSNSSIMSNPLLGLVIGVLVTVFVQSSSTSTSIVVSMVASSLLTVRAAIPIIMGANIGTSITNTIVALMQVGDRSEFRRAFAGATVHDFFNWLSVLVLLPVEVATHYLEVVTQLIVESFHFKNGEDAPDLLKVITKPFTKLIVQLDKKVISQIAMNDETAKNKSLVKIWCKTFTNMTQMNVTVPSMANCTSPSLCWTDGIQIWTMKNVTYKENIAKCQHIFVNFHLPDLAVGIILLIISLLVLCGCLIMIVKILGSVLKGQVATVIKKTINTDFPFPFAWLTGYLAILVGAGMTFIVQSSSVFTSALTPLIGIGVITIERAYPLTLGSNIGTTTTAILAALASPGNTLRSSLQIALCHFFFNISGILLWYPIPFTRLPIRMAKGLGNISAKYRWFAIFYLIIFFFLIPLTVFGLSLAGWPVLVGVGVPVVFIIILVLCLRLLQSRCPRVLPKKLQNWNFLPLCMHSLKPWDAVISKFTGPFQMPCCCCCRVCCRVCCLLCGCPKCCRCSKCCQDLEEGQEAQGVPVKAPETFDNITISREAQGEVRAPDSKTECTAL

T3: mouse SLC34A2 (mouse, UniProt Q9DBP0 1-697)
T3 construct: whole, on cells
T3 sequence (looked up): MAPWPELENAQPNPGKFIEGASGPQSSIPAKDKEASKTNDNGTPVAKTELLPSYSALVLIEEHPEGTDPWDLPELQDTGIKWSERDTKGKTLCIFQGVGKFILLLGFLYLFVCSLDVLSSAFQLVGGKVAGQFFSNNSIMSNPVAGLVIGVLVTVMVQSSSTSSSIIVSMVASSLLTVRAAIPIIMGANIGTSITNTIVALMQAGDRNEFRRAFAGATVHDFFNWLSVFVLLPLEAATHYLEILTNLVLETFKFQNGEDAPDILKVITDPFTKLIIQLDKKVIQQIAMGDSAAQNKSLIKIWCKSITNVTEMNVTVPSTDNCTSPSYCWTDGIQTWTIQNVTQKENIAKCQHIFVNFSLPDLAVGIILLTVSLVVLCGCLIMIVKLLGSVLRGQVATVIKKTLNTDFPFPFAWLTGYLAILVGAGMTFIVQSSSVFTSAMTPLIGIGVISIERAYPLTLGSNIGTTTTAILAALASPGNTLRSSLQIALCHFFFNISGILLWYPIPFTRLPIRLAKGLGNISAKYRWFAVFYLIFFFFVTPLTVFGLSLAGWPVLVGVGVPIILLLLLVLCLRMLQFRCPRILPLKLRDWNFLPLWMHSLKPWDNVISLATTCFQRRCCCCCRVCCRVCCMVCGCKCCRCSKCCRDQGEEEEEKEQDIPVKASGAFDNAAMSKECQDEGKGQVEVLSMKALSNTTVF

B1: 91C9F1.p1.z7 hIgG1 (antibody, V domains shown)
VH: QVQLVQSGAEVKKPGSSVKVSCKTSGFFFTEYIIHWVRQAPGQGLEWIGGIIPNNDVTNYKQNFRGRVTLTADKSTSTAYMELSSLRSEDTAVYYCARWRNAYYSAMDSWGQGTTVTVSS
VL: DIQVTQSPSSLSTSVGDRVTITCTASQDVGTAVAWYQQKPGKSPKLLIYWASTRHTGVPERFTGSGSGTDFTLTISSVQPEDVATYFCQQYRTSPLTFGVGTKVEIK
notes: humanized hIgG1
B2: 63A11D5B4.p1.z9 hIgG1 (antibody, V domains shown)
VH: QVQLVQSGAEVVKPGASVKMSCKTSGYTFITYNMHWVRQAPGQGLEWIGAIYPGSGDTSYNQKFKGRVTLTADKSTSTAYMELSSLRSEDTAVYYCSISTIITTGAVDYWGQGTLVTVSS
VL: DIQMTQSPSSLSASVGDRVTITCKASQDVGTAVAWYQQKPGKVPKLLIYWTSTRHTGVPSRFSGSGSGTDFTLTISSLQPEDVATYYCQQYSRIPLTFGGGTKVEIK
notes: humanized hIgG1
B3: 30H9B8F9.p1.z5 hIgG1 (antibody, V domains shown)
VH: QVQLVQSGAEVKKPGASVKVSCKTSGYTFTTNNMHWVRQAPGQGLEWIGAIYPGSGATAYNQKFKGRVTMTADTSTSTVYMELSSLRSEDTAVYYCARGMYGHGAMDYWGQGTLVTVSS
VL: DIQLTQSPSFLSASVGDRVTITCKASQDVGTAVAWYQQKPGKAPKLLIYWATTRHSGVPSRFSGSGSGTEFTLTISSLQPEDFATYYCQQYSSNPLTFGQGTKLEIK
notes: humanized hIgG1
B4: 62G10E4G8.p3.z15 hIgG1 (antibody, V domains shown)
VH: QVQLVQSGAEVVKPGASVKMSCKASGYTFPSYITHWVKQAPGQGLEWIGAIYPGNADTSYIQKFKGRATLTADKSTSTAYMELSSLRSEDTAVYYCARGTYGTSAWFTYWGQGTLVTVSS
VL: EIVLTQSPATLSVSPGERATLSCRARQNIGNNLYWYQQKPGQSPRLLIKYASQSISGIPSRFSGSGSGTDFTLTISSLQSEDFAVYFCQQSFSWPLTFGQGTKLEIK
notes: humanized hIgG1
B5: xi30H9B8F9 hIgG1 (antibody, V domains shown)
VH: QVQLQQPGAELVKPGASVKMSCKTSGYTFTTNNMHWVKQTPGQGLEWIGAIYPGNGATAYNQKFKGKATLTADKSSSTAYMQLSSLTSEASAVYYCARGMYGHGAMDYWGQGTSVIVSS
VL: DIVMTQSHKFMSRSVGDRVRITCKASQDVGTAVAWYQQKPGQSPKLLIYWATTRHSGVPDRFTGSGSGTDFIFTISNVQSEDLADYFCQQYSSNPLTFGAGTKLELK
notes: chimeric, hIgG1
B6: xi63A11D5B4 hIgG1 (antibody, V domains shown)
VH: QVQLQQPGAELVKPGASVKMSCRTSGYTFITYNMHWVKQTPGQGREWIGAIYPGNGDTSYNQKFKGKATLTADKSSSTAYMQLNSLTSEDSAVYYCSISTIITTGAVDYWGQGTSVTVAS
VL: DIVMTQSHKFMSTSVGDRVSITCKASQDVGTAVAWYQQKAGQSPKLLIYWTSTRHTGVPDRFTGSGSGTDFTLIIRSLQSEDLADYFCQQYSRIPLTFGSGTKLEIK
notes: chimeric, hIgG1
B7: xi91C9F1 hIgG1 (antibody, V domains shown)
VH: EVQLQQSGPELVKPGTSVKISCKTSGFFFTEYIIHWVKQSHGRSLEWIGGIIPNNGVTNYKQNFRGKAALTADKSSNTAYMELRSLTSEDSAVYYCARWRNGYYSAMDSWGQGTSVTVSS
VL: DIVVTQSHKFMSTSLGDRVSITCTASQDVGTAVAWYQQKPGHSPKLLIYWASTRHTGVPERFTGSGSGTDFTLTITNVQSEDLADYFCQQYRTSPLTFGVGTKLELK
notes: chimeric, hIgG1
B8: xi62G10E4G8 hIgG1 (antibody, V domains shown)
VH: B4 VH with V5Q, A40T, A56G, R67K, T76S, E82Q, R87T, T91S, S120A
VL: DIVLTQSPATLSVTPGDSVSLSCRARQNIGNNLYWYQQKSHESPRLLIKYASQSISGIPSRFSGSGSGTDFTLTINSVETEDFGVYFCQQSFSWPLTFGAGTKLELK
notes: chimeric, hIgG1
B9: XMT-1536 (antibody, INN chains, looked up, V domains shown)
VH: QVQLVQSGAEVVKPGASVKMSCKASGYTFTGYNIHWVKQAPGQGLEWIGAIYPGNGDTSYKQKFRGRATLTADTSTSTVYMELSSLRSEDSAVYYCARGETARATFAYWGQGTLVTVSS
VL: DIQMTQSPSSLSASVGDRVTITCSASQDIGNFLNWYQQKPGKTVKVLIYYTSSLYSGVPSRFSGSGSGTDYTLTISSLQPEDFATYYCQQYSKLPLTFGQGTKLELK
modifications: rilsodotin auristatin payload

Changes are numbered by the printed parent chain.

Broadly, the EC50 is the concentration needed to bring the measured effect to its halfway point. A low value points to greater potency.

The first assay deals with T1, human SLC34A2. Briefly: FACS, HEK293/human SLC34A2 cells. A general note: In flow cytometry, cells or beads pass a laser one at a time.
On to B1, for which the EC50 came to 2.72 nM.
Still for that read-out and setting: the same measure for B2: 5.87 nM.
B3 had an EC50 of 2.4 nM.
Take B4: the EC50 is 2.86 nM.

The target in the next assay is T1, human SLC34A2. The assay can be described thus: FACS, OVCAR3 cells.
With B5, it took 1.1 nM to reach a half-maximal effect (EC50) and the “Top (MFI)” value was found to be 69100 MFI.
On the same counts, the results for B6 are 9.2 nM and 78600 MFI.
On the same counts, the results for B7 are 1.6 nM and 63300 MFI.
The like results for B8 were, in that order, 5.8 nM and 71100 MFI.

A further assay has as its target T1, human SLC34A2. The assay can be described thus: FACS, RMG-1 cells. In a few lines: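 Flow-cytometric binding of chimeric antibodies (8-point, 4-fold dilutions from 200 nM) to RMG-1 cells, 60 min at 4° C, followed by fluorescent secondary antibody for 30 min at 4° C.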
B5: the half-maximal effective concentration (EC50) was 0.99 nM and the “Top (MFI)” value came to 9470 MFI.
For the molecule B6, the EC50 was 5.32 nM and the “Top (MFI)” value was determined as 9770 MFI.
The like results for B7 were, in that order, 1.3 nM and 9230 MFI.
Turning to B8, the concentration giving a half-maximal response (EC50) was 3.65 nM and the “Top (MFI)” value worked out at 9370 MFI.

The target in the next assay is T1, human SLC34A2. The assay can be described thus: FACS, OVCAR3 cells. This is another data set of the same source.
B1: a half-maximal effect (EC50) was put at 2.4 nM.
The same measure, in the same setting: the same measure for B2: 9.1 nM; for B3: 0.9 nM.
Regarding B4, a half-maximal response (EC50) required 3.8 nM.

For the next assay, the target named is T2, Rhesus SLC34A2. The assay can be described thus: FACS, HEK293/Rhesus SLC34A2 cells. Here is the method:
Briefly, the Rhesus SLC34A2 expressing HEK293 engineering cells (HEK293/Rhesus_SLC34A2) were incubated with chimeric Abs (from 200 nM, 4 folds dilution, 8 points). After incubation at 4° C. for 60 minutes, the cells were washed with FACS buffer twice, then stained with fluorescent conjugated secondary antibody at 4° C. for 30 minutes. After that the cells were washed twice and analyzed by flow cytometry.
As for B5, the EC50 is 1.26 nM and the “Top (MFI)” value worked out at 17000 MFI.
The like results for B6 were, in that order, 2.56 nM and 15100 MFI.
On the same counts, the results for B7 are 0.95 nM and 12200 MFI.
On the same counts, the results for B8 are 2.53 nM and 12000 MFI.

In the next assay the target is T3, mouse SLC34A2. Briefly: FACS, HEK293/Mouse SLC34A2 cells.
B1 came in with an EC50 of 3.34 nM.
Still for that read-out and setting: the same measure for B2: 5.38 nM; for B3: 2.06 nM.
Same read-out and setting: the same measure for B4: 5.74 nM.

In a further assay the target is T1, human SLC34A2. Briefly: FACS, MDAH2774 cells.
Turning to B1, the concentration for a half-maximal effect (EC50) is 2.06 nM.
Same read-out and setting: the same measure for B2: 15.1 nM; for B3: 1.28 nM.
On the same count and under the same terms, the same measure for B9: 7.09 nM; for B4: 2.82 nM.

The values above are taken from patent publication US20240301052A1 (LANOVA MEDICINES DEVELOPMENT, published 2024).
